Experimental findings from the supplement of paper PMC5998384 are described below.

Series [1] relates to HeLa Kyoto. The series is described as follows: solubility in G1/S (NP-40 vs SDS abundance) (log2 ratio); higher = more soluble. The settings on record: cell cycle stage: G1/S.
Series [2] deals with HeLa Kyoto. The series is described as follows: solubility change mitosis vs G1/S (difference of NP-40 vs SDS log2 ratios) (log2 ratio difference); higher = more soluble in mitosis.
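Throughout, for solubility change mitosis vs G1/S (difference of NP-40 vs SDS log2 ratios): synchronized HeLa Kyoto cells (double thymidine block for G1/S, nocodazole release for mitosis), protein amounts in NP-40 versus SDS lysates quantified by mass spectrometry, three biological replicates.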
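Throughout, for solubility in G1/S (NP-40 vs SDS abundance): HeLa Kyoto cells arrested at G1/S by double thymidine block, proteins quantified by TMT10plex mass spectrometry in mild NP-40 versus SDS extracts, three biological replicates.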

On to “MSSLPRRAKVQVQDVVLKDEFSSFSELSSASEEDDKEDSAWEPQKKVPRSRKQPPPKESKPKRMPRVKKNAPQISDGSEVVVVKEELNSSVAIADTALEDRKNKLDTVQTLKTAKTKQKCAAQPHTVRRTKKLKVEEETSKASNLEGESNSSETPSTSTVWGGTCKKEENDDDFTFGQSALKKIKTETYPQGQPVKFPANANSTKEEVEMNWDMVQVLSERTNIEPWVCANIIRLFNDDNTIPFIIRYRKELINNLDADSLREVQQTLEELRAVAKKVHSTIQKIKKEGKMSECLLKAMLNCKTFEELEHVSAPYKTGSKGTKAQRARQLGLEGAARALLEKPGELSLLSYIRPDVKGLSTLQDIEIGVQHILADMIAKDKDTLDFIRNLCQKRHVCIQSSLAKVSSKKVNEKDVDKFLLYQHFSCNIRNIHHHQILAINRGENLKVLTVKVNISDGVKDEFCRWCIQNRWRPRSFARPELMKILYNSLNDSFKRLIYPLLCREFRAKLTSDAEKESVMMFGRNLRQLLLTSPVPGRTLMGVDPGYKHGCKLAIISPTSQILHTDVVYLHCGQGFREAEKIKTLLLNFNCSTVVIGNGTACRETEAYFADLIMKNYFAPLDVVYCIVSEAGASIYSVSPEANKEMPGLDPNLRSAVSIARRVQDPLAELVKIEPKHIGVGMYQHDVSQTLLKATLDSVVEECVSFVGVDINICSEVLLRHIAGLNANRAKNIIEWREKNGPFINREQLKKVKGLGPKSFQQCAGFIRINQDYIRTFCSQQTETSGQIQGVAVTSSADVEVTNEKQGKKKSKTAVNVLLKPNPLDQTCIHPESYDIAMRFLSSIGGTLYEVGKPEMQQKINSFLEKEGMEKIAERLQTTVHTLQVIIDGLSQPESFDFRTDFDKPDFKRSIVCLEDLQIGTVLTGKVENATLFGIFVDIGVGKSGLIPIRNVTEAKLSKTKKRRSLGLGPGERVEVQVLNIDIPRSRITLDLIRVL [SRBD1]”, for which, in series [1], the “solubility in G1/S (log2)” value is -0.649. Also, the “solubility change mitosis (log2)” value in series [2] was 0.249.
The corresponding values for “MSTEADEGITFSVPPFAPSGFCTIPEGGICRRGGAAAVGEGEEHQLPPPPPGSFWNVESAAAPGIGCPAATSSSSATRGRGSSVGGGSRRTTVAYVINEASQGQLVVAESEALQSLREACETVGATLETLHFGKLDFGETTVLDRFYNADIAVVEMSDAFRQPSLFYHLGVRESFSMANNIILYCDTNSDSLQSLKEIICQKNTMCTGNYTFVPYMITPHNKVYCCDSSFMKGLTELMQPNFELLLGPICLPLVDRFIQLLKVAQASSSQYFRESILNDIRKARNLYTGKELAAELARIRQRVDNIEVLTADIVINLLLSYRDIQDYDSIVKLVETLEKLPTFDLASHHHVKFHYAFALNRRNLPGDRAKALDIMIPMVQSEGQVASDMYCLVGRIYKDMFLDSNFTDTESRDHGASWFKKAFESEPTLQSGINYAVLLLAAGHQFESSFELRKVGVKLSSLLGKKGNLEKLQSYWEVGFFLGASVLANDHMRVIQASEKLFKLKTPAWYLKSIVETILIYKHFVKLTTEQPVAKQELVDFWMDFLVEATKTDVTVVRFPVLILEPTKIYQPSYLSINNEVEEKTISIWHVLPDDKKGIHEWNFSASSVRGVSISKFEERCCFLYVLHNSDDFQIYFCTELHCKKFFEMVNTITEEKGRSTEEGDCESDLLEYDYEYDENGDRVVLGKGTYGIVYAGRDLSNQVRIAIKEIPERDSRYSQPLHEEIALHKHLKHKNIVQYLGSFSENGFIKIFMEQVPGGSLSALLRSKWGPLKDNEQTIGFYTKQILEGLKYLHDNQIVHRDIKGDNVLINTYSGVLKISDFGTSKRLAGINPCTETFTGTLQYMAPEIIDKGPRGYGKAADIWSLGCTIIEMATGKPPFYELGEPQAAMFKVGMFKVHPEIPESMSAEAKAFILKCFEPDPDKRACANDLLVDEFLKVSSKKKKTQPKLSALSAGSNEYLRSISLPVPVLVEDTSSSSEYGSVSPDTELKVDPFSFKTRAKSCGERDVKGIRTLFLGIPDENFEDHSAPPSPEEKDSGFFMLRKDSERRATLHRILTEDQDKIVRNLMESLAQGAEEPKLKWEHITTLIASLREFVRSTDRKIIATTLSKLKLELDFDSHGISQVQVVLFGFQDAVNKVLRNHNIKPHWMFALDSIIRKAVQTAITILVPELRPHFSLASESDTADQEDLDVEDDHEEQPSNQTVRRPQAVIEDAVATSGVSTLSSTVSHDSQSAHRSLNVQLGRMKIETNRLLEELVRKEKELQALLHRAIEEKDQEIKHLKLKSQPIEIPELPVFHLNSSGTNTEDSELTDWLRVNGADEDTISRFLAEDYTLLDVLYYVTRDDLKCLRLRGGMLCTLWKAIIDFRNKQT [MAP3K5]” are -1.04 and 0.654.
The corresponding values for “MSVSARSAAAEERSVNSSTMVAQQKNLEGYVGFANLPNQVYRKSVKRGFEFTLMVVGESGLGKSTLINSLFLTDLYSPEYPGPSHRIKKTVQVEQSKVLIKEGGVQLLLTIVDTPGFGDAVDNSNCWQPVIDYIDSKFEDYLNAESRVNRRQMPDNRVQCCLYFIAPSGHGLKPLDIEFMKRLHEKVNIIPLIAKADTLTPEECQQFKKQIMKEIQEHKIKIYEFPETDDEEENKLVKKIKDRLPLAVVGSNTIIEVNGKRVRGRQYPWGVAEVENGEHCDFTILRNMLIRTHMQDLKDVTNNVHYENYRSRKLAAVTYNGVDNNKNKGQLTKSPLAQMEEERREHVAKMKKMEMEMEQVFEMKVKEKVQKLKDSEAELQRRHEQMKKNLEAQHKELEEKRRQFEDEKANWEAQQRILEQQNSSRTLEKNKKKGKIF [SEPT7]” are 0.245 and 0.00373.
For “MSWLFPLTKSASSSAAGSPGGLTSLQQQKQRLIESLRNSHSSIAEIQKDVEYRLPFTINNLTININILLPPQFPQEKPVISVYPPIRHHLMDKQGVYVTSPLVNNFTMHSDLGKIIQSLLDEFWKNPPVLAPTSTAFPYLYSNPSGMSPYASQGFPFLPPYPPQEANRSITSLSVADTVSSSTTSHTTAKPAAPSFGVLSNLPLPIPTVDASIPTSQNGFGYKMPDVPDAFPELSELSVSQLTDMNEQEEVLLEQFLTLPQLKQIITDKDDLVKSIEELARKNLLLEPSLEAKRQTVLDKYELLTQMKSTFEKKMQRQHELSESCSASALQARLKVAAHEAEEESDNIAEDFLEGKMEIDDFLSSFMEKRTICHCRRAKEEKLQQAIAMHSQFHAPL [VPS37A]”, in that order: 0.656 and -0.0301.
As to “MSYVFVNDSSQTNVPLLQACIDGDFNYSKRLLESGFDPNIRDSRGRTGLHLAAARGNVDICQLLHKFGADLLATDYQGNTALHLCGHVDTIQFLVSNGLKIDICNHQGATPLVLAKRRGVNKDVIRLLESLEEQEVKGFNRGTHSKLETMQTAESESAMESHSLLNPNLQQGEGVLSSFRTTWQEFVEDLGFWRVLLLIFVIALLSLGIAYYVSGVLPFVENQPELVH [ANKRD46]”, the “solubility in G1/S (log2)” value in series [1] stood at 0.237. For the same sequence, the “solubility change mitosis (log2)” value in series [2] stood at 0.136.
Regarding “MTAVNVALIRDTKWLTLEVCREFQRGTCSRADADCKFAHPPRVCHVENGRVVACFDSLKGRCTRENCKYLHPPPHLKTQLEINGRNNLIQQKTAAAMFAQQMQLMLQNAQMSSLGSFPMTPSIPANPPMAFNPYIPHPGMGLVPAELVPNTPVLIPGNPPLAMPGAVGPKLMRSDKLEVCREFQRGNCTRGENDCRYAHPTDASMIEASDNTVTICMDYIKGRCSREKCKYFHPPAHLQARLKAAHHQMNHSAASAMALQPGTLQLIPKRSALEKPNGATPVFNPTVFHCQQALTNLQLPQPAFIPAGPILCMAPASNIVPMMHGATPTTVSAATTPATSVPFAAPTTGNQLKF [MBNL3]”, in series [1], the “solubility in G1/S (log2)” value amounted to 0.0798. In series [2], the “solubility change mitosis (log2)” value is 0.156.
Regarding “MTEESEETVLYIEHRYVCSECNQLYGSLEEVLMHQNSHVPQQHFELVGVADPGVTVATDTASGTGLYQTLVQESQYQCLECGQLLMSPSQLLEHQELHLKMMAPQEAVPAEPSPKAPPLSSSTIHYECVDCKALFASQELWLNHRQTHLRATPTKAPAPVVLGSPVVLGPPVGQARVAVEHSYRKAEEGGEGATVPSAAATTTEVVTEVELLLYKCSECSQLFQLPADFLEHQATHFPAPVPESQEPALQQEVQASSPAEVPVSQPDPLPASDHSYELRNGEAIGRDRRGRRARRNNSGEAGGAATQELFCSACDQLFLSPHQLQQHLRSHREGVFKCPLCSRVFPSPSSLDQHLGDHSSESHFLCVDCGLAFGTEALLLAHRRAHTPNPLHSCPCGKTFVNLTKFLYHRRTHGVGGVPLPTTPVPPEEPVIGFPEPAPAETGEPEAPEPPVSEETSAGPAAPGTYRCLLCSREFGKALQLTRHQRFVHRLERRHKCSICGKMFKKKSHVRNHLRTHTGERPFPCPDCSKPFNSPANLARHRLTHTGERPYRCGDCGKAFTQSSTLRQHRLVHAQHFPYRCQECGVRFHRPYRLLMHRYHHTGEYPYKCRECPRSFLLRRLLEVHQLVVHAGRQPHRCPSCGAAFPSSLRLREHRCAAAAAQAPRRFECGTCGKKVGSAARLQAHEAAHAAAGPGEVLAKEPPAPRAPRATRAPVASPAALGSTATASPAAPARRRGLECSECKKLFSTETSLQVHRRIHTGERPYPCPDCGKAFRQSTHLKDHRRLHTGERPFACEVCGKAFAISMRLAEHRRIHTGERPYSCPDCGKSYRSFSNLWKHRKTHQQQHQAAVRQQLAEAEAAVGLAVMETAVEALPLVEAIEIYPLAEAEGVQISG [ZNF574]”, in series [1], the “solubility in G1/S (log2)” value is -0.386. Also, the “solubility change mitosis (log2)” value in series [2] amounted to 0.212.
As for “MTSAVVDSGGTILELSSNGVENQEESEKVSEYPAVIVEPVPSARLEQGYAAQVLVYDDETYMMQDVAEEQEVETENVETVEASVHSSNAHCTDKTIEAAEALLHMESPTCLRDSRSPVEVFVPPCVSTPEFIHAAMRPDVITETVVEVSTEESEPMDTSPIPTSPDSHEPMKKKKVGRKPKTQQSPISNGSPELGIKKKPREGKGNTTYLWEFLLDLLQDKNTCPRYIKWTQREKGIFKLVDSKAVSKLWGKHKNKPDMNYETMGRALRYYYQRGILAKVEGQRLVYQFKDMPKNIVVIDDDKSETCNEDLAGTTDEKSLERVSLSAESLLKAASSVRSGKNSSPINCSRAEKGVARVVNITSPGHDASSRSPTTTASVSATAAPRTVRVAMQVPVVMTSLGQKISTVAVQSVNAGAPLITSTSPTTATSPKVVIQTIPTVMPASTENGDKITMQPAKIITIPATQLAQCQLQTKSNLTGSGSINIVGTPLAVRALTPVSIAHGTPVMRLSMPTQQASGQTPPRVISAVIKGPEVKSEAVAKKQEHDVKTLQLVEEKPADGNKTVTHVVVVSAPSAIALPVTMKTEGLVTCEK [ELF2]”, in series [1], the “solubility in G1/S (log2)” value worked out at 0.284. Moreover, the “solubility change mitosis (log2)” value in series [2] amounted to 0.0877.
For “MTSPSPRIQIISTDSAVASPQRIQIVTDQQTGQKIQIVTAVDASGSPKQQFILTSPDGAGTGKVILASPETSSAKQLIFTTSDNLVPGRIQIVTDSASVERLLGKTDVQRPQVVEYCVVCGDKASGRHYGAVSCEGCKGFFKRSVRKNLTYSCRSNQDCIINKHHRNRCQFCRLKKCLEMGMKMESVQSERKPFDVQREKPSNCAASTEKIYIRKDLRSPLIATPTFVADKDGARQTGLLDPGMLVNIQQPLIREDGTVLLATDSKAETSQGALGTLANVVTSLANLSESLNNGDTSEIQPEDQSASEITRAFDTLAKALNTTDSSSSPSLADGIDTSGGGSIHVISRDQSTPIIEVEGPLLSDTHVTFKLTMPSPMPEYLNVHYICESASRLLFLSMHWARSIPAFQALGQDCNTSLVRACWNELFTLGLAQCAQVMSLSTILAAIVNHLQNSIQEDKLSGDRIKQVMEHIWKLQEFCNSMAKLDIDGYEYAYLKAIVLFSPDHPGLTSTSQIEKFQEKAQMELQDYVQKTYSEDTYRLARILVRLPALRLMSSNITEELFFTGLIGNVSIDSIIPYILKMETAEYNGQITGASL [NR2C2]”, in that order: -0.109 and 0.0297.
The corresponding values for “MVAMAAGPSGCLVPAFGLRLLLATVLQAVSAFGAEFSSEACRELGFSSNLLCSSCDLLGQFNLLQLDPDCRGCCQEEAQFETKKLYAGAILEVCGUKLGRFPQVQAFVRSDKPKLFRGLQIKYVRGSDPVLKLLDDNGNIAEELSILKWNTDSVEEFLSEKLERI [SEP15]” are 0.305 and -0.028.
